In publication PMC3093367:
“And” between values parts separate entries of the source, which are not always exact repeats. Equal entries are not always repeated.

T1: RVFV nucleoprotein N (SEC fraction N2) (Rift Valley fever virus (strain …, UniProt D3K5I7 1-245))
T1 sequence: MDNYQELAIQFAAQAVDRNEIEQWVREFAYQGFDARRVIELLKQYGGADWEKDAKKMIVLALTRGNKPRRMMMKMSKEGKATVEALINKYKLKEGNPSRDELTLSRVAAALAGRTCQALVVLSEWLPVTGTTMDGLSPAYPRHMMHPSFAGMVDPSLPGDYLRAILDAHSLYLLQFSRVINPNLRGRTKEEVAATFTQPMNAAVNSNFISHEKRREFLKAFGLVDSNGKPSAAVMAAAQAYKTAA


What was measured:
[1] = molecular target: Rift Valley fever virus nucleoprotein (N), recombinant wild type (Rift Valley fever virus (strain Smithburn)) (UniProt P21700); assay: crystal structure
[2] = molecular target: Rift Valley fever virus nucleoprotein (N), recombinant wild type (Rift Valley fever virus (strain Smithburn)) (UniProt P21700); assay: cross-linking
[3] = molecular target: T1, RVFV nucleoprotein N (SEC fraction N2); assay: SPR; RNA immobilized via biotin-NeutrAvidin; SPR (ProteOn XPR36, […]; temperature not stated; details: protein: recombinant; tags: N-terminal thioredoxin-His6 tag removed by TEV; label: 3' biotin; single strand

Sequence of Rift Valley fever virus nucleoprotein (N), recombinant wild type (P21700 whole entry): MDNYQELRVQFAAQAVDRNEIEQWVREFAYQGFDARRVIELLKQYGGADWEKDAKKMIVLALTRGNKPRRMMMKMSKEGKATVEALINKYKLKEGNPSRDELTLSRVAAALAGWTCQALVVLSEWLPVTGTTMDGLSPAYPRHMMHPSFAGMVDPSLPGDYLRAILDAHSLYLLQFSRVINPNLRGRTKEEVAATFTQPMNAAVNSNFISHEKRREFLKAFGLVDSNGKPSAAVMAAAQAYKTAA

Molecule	stoichiometry N [1]	stoichiometry N [2]	Kd [3]
Rift Valley fever virus nucleoprotein (N), recombinant wild type (from UniProt P21700 1-245) (natural protein)	6	2 and 3 and 4	–
GAGUUGUUAAUCUUUUUUUU (ssRNA) [RNA20-3'biotin]	–	–	3.8 µM
